The text below walks through data of patent publication US20260007748A1 (KELONIA THERAPEUTICS, published 2026).

Where a chain is given by its changes, count along the chain named.

To fix the notation:
T1: B cell maturation antigen (BCMA) (human, UniProt Q02223 1-184)
T1 construct: BCMA as carried by RPMI-8226 (high BCMA) and Daudi (low BCMA) tumor cells; also called TNFRSF17; tumor necrosis factor receptor superfamily member 17
T1 sequence: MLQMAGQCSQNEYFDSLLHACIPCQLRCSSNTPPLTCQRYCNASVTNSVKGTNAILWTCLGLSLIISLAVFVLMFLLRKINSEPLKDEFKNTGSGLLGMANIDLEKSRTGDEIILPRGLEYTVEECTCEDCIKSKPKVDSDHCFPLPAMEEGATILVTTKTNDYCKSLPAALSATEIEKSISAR

B1: anti-BCMA CAR of recombinant lentivirus LV 11 (SEQ ID NO: 275) (other)
chain: EVQLLESGGGLVQPGGSLRLSCAASGFTFDEYTMHWFRQAPGKEREFVSAISGGGSETYYADSVKGRFTISRDNSKNTLYLQMNSLRAEDTAVYYCAAGGEEAGVGYWGQGTQVTVSSTTTPAPRPPTPAPTIASQPLSLRPEACRPAAGGAVHTRGLDFACDIYIWAPLAGTCGVLLLSLVITLYCKRGRKKLLYIFKQPFMRPVQTTQEEDGCSCRFPEEEEGGCELRVKFSRSADAPAYQQGQNQLYNELNLGRREEYDVLDKRRGRDPEMGGKPRRKNPQEGLYNELQKDKMAEAYSEIGMKGERRRGKGHDGLYQGLSTATKDTYDALHMQALPPR
notes: Chimeric antigen receptor on transduced human PBMCs: anti-BCMA VHH, CD8α hinge and TM, CD137 costim, CD3ζ
B2: anti-BCMA CAR of recombinant lentivirus LV 18 (SEQ ID NO: 283) (other)
chain: EVQLLESGGGLVQPGGSLRLSCAASGFTFSSEGMSWVRQAPGKERELVSAISGSGDHTYYADSVRGRFTISRDNSKNTLYLQMNSLRAEDTAVYYCNALEGGPTTAIQPGGPDYWGQGTQVTVSSTTTPAPRPPTPAPTIASQPLSLRPEACRPAAGGAVHTRGLDFACDIYIWAPLAGTCGVLLLSLVITLYCKRGRKKLLYIFKQPFMRPVQTTQEEDGCSCRFPEEEEGGCELRVKFSRSADAPAYQQGQNQLYNELNLGRREEYDVLDKRRGRDPEMGGKPRRKNPQEGLYNELQKDKMAEAYSEIGMKGERRRGKGHDGLYQGLSTATKDTYDALHMQALPPR
notes: as for B1
B3: anti-BCMA CAR of recombinant lentivirus LV 5 (SEQ ID NO: 263) (other)
chain: QVQLVESGGGLVKPGGSLRLSCAASGFTFSDYYMSWIRQAPGKGLEWVSYISSSGSTIYYADSVKGRFTISRDNAKNSLYLQMNSLRAEDTAVYYCARDQGNYGVDVWGQGTTVTVSSGGGGSGGGGSGGGGSGGGGSDIQMTQSPSTLSASVGDRVTITCRASQSISSWLAWYQQKPGKAPKLLIYEASSLESGVPSRFSGSGSGTEFTLTISSLQPDDFATYYCQQSDSHPITFGGGTKVEIKTTTPAPRPPTPAPTIASQPLSLRPEACRPAAGGAVHTRGLDFACDIYIWAPLAGTCGVLLLSLVITLYCKRGRKKLLYIFKQPFMRPVQTTQEEDGCSCRFPEEEEGGCELRVKFSRSADAPAYQQGQNQLYNELNLGRREEYDVLDKRRGRDPEMGGKPRRKNPQEGLYNELQKDKMAEAYSEIGMKGERRRGKGHDGLYQGLSTATKDTYDALHMQALPPR
notes: Chimeric antigen receptor on transduced human PBMCs: anti-BCMA scFv, CD8α hinge and TM, CD137 costim, CD3ζ; also called LV 5.1 to LV 5.9
B4: anti-BCMA CAR of recombinant lentivirus LV 1 (SEQ ID NO: 256) (other)
chain: EIVLTQSPATLSLSPGERATLSCRASQSVSSYLAWYQQKPGQAPRLLIYDASNRATGIPARFSGSGSGTDFTLTISSLEPEDFAVYYCQQRVVYPITFGGGTKVEIKGGGGSGGGGSGGGGSGGGGSQITLKESGPTLVKPTQTLTLTCTFSGFSLSTSGVGVGWIRQPPGKALEWLALIYWNDEKRYSPSLKSRLTITKDTSKNQVVLTMTNMDPVDTAVYYCARDEYGGFDIWGQGTMVTVSSTTTPAPRPPTPAPTIASQPLSLRPEACRPAAGGAVHTRGLDFACDIYIWAPLAGTCGVLLLSLVITLYCKRGRKKLLYIFKQPFMRPVQTTQEEDGCSCRFPEEEEGGCELRVKFSRSADAPAYQQGQNQLYNELNLGRREEYDVLDKRRGRDPEMGGKPRRKNPQEGLYNELQKDKMAEAYSEIGMKGERRRGKGHDGLYQGLSTATKDTYDALHMQALPPR
notes: Chimeric antigen receptor on transduced human PBMCs: anti-BCMA scFv, CD8α hinge and TM, CD137 costim, CD3ζ; Encoded with a CD8α signal peptide
B5: anti-BCMA CAR of recombinant lentivirus LV 2 (SEQ ID NO: 258) (other)
chain: B4 chain with V92F, V93D, E185D
notes: Chimeric antigen receptor on transduced human PBMCs: anti-BCMA scFv, CD8α hinge and TM, CD137 costim, CD3ζ
B6: anti-BCMA CAR of recombinant lentivirus LV 9 (SEQ ID NO: 273) (other)
chain: EVQLLESGGGLVQPGGSLRLSCAASGFTFGSEAMSWVRQAPGKERELVSAISGSGEVTYYADSVKGRFTISRDNSKNTLYLQMNSLRAEDTAVYYCQRLVEAKRHWGQGTQVTVSSTTTPAPRPPTPAPTIASQPLSLRPEACRPAAGGAVHTRGLDFACDIYIWAPLAGTCGVLLLSLVITLYCKRGRKKLLYIFKQPFMRPVQTTQEEDGCSCRFPEEEEGGCELRVKFSRSADAPAYQQGQNQLYNELNLGRREEYDVLDKRRGRDPEMGGKPRRKNPQEGLYNELQKDKMAEAYSEIGMKGERRRGKGHDGLYQGLSTATKDTYDALHMQALPPR
notes: Chimeric antigen receptor on transduced human PBMCs: anti-BCMA VHH, CD8α hinge and TM, CD137 costim, CD3ζ; also called LV 9.1 to LV 9.9
B7: anti-BCMA CAR of recombinant lentivirus LV 3 (SEQ ID NO: 259) (other)
chain: QVQLVESGGGVVQPGRSLRLSCAASGFTFSSYGMHWVRQAPGKGLEWVAVISYEGSNKYYADSVKGRFTISRDNSKNTLYLQMNSLRAEDTAVYYCARELGDGMDVWGQGTTVTVSSGGGGSGGGGSGGGGSGGGGSEIVLTQSPATLSLSPGERATLSCRASQSVSSYLAWFQQKPGQAPRLLIYDASNRATGIPARFSGSGSGTDFTLTISSLEPEDFAVYYCQQRVDLWTFGGGTKVEIKTTTPAPRPPTPAPTIASQPLSLRPEACRPAAGGAVHTRGLDFACDIYIWAPLAGTCGVLLLSLVITLYCKRGRKKLLYIFKQPFMRPVQTTQEEDGCSCRFPEEEEGGCELRVKFSRSADAPAYQQGQNQLYNELNLGRREEYDVLDKRRGRDPEMGGKPRRKNPQEGLYNELQKDKMAEAYSEIGMKGERRRGKGHDGLYQGLSTATKDTYDALHMQALPPR
notes: Chimeric antigen receptor on transduced human PBMCs: anti-BCMA scFv, CD8α hinge and TM, CD137 costim, CD3ζ; also called LV 3.1 to LV 3.9
B8: anti-BCMA CAR of recombinant lentivirus LV 10 (SEQ ID NO: 274) (other)
chain: EVQLLESGGGLVQPGGSLRLSCAASGFTFESEAMSWYRQAPGKERELVSVITSEGSTYYADSVKGRFTISRDNSKNTLYLQMNSLRAEDTAVYYCAHIEWETRLNWGQGTQVTVSSTTTPAPRPPTPAPTIASQPLSLRPEACRPAAGGAVHTRGLDFACDIYIWAPLAGTCGVLLLSLVITLYCKRGRKKLLYIFKQPFMRPVQTTQEEDGCSCRFPEEEEGGCELRVKFSRSADAPAYQQGQNQLYNELNLGRREEYDVLDKRRGRDPEMGGKPRRKNPQEGLYNELQKDKMAEAYSEIGMKGERRRGKGHDGLYQGLSTATKDTYDALHMQALPPR
notes: as for B1
B9: anti-BCMA CAR of recombinant lentivirus LV 12 (SEQ ID NO: 276) (other)
chain: EVQLLESGGGLVQPGGSLRLSCAASGFTFEDYAMSWFRQAPGKEREGVSAISGKGGSTYYADSVKGRFTISRDNSKNTLYLQMNSLRAEDTAVYYCAVLDEEAGAEGGYWGQGTQVTVSSTTTPAPRPPTPAPTIASQPLSLRPEACRPAAGGAVHTRGLDFACDIYIWAPLAGTCGVLLLSLVITLYCKRGRKKLLYIFKQPFMRPVQTTQEEDGCSCRFPEEEEGGCELRVKFSRSADAPAYQQGQNQLYNELNLGRREEYDVLDKRRGRDPEMGGKPRRKNPQEGLYNELQKDKMAEAYSEIGMKGERRRGKGHDGLYQGLSTATKDTYDALHMQALPPR
notes: as for B1
B10: anti-BCMA CAR of recombinant lentivirus LV 13 (SEQ ID NO: 277) (other)
chain: B9 chain with E30D, D31R, G53T, K54S, G56D
notes: Chimeric antigen receptor on transduced human PBMCs: anti-BCMA VHH, CD8α hinge and TM, CD137 costim, CD3ζ; also called LV 13.1 to LV 13.9
B11: anti-BCMA CAR of recombinant lentivirus LV 7 (SEQ ID NO: 268) (other)
chain: DIQMTQSPSSLSASVGDRVTITCRASQSISSYLNWYQQKPGKAPKLLIYAASSLQSGVPSRFSGSGSGTDFTLTISSLQPEDFATYYCQQAHSSPITFGGGTKVEIKGGGGSGGGGSGGGGSGGGGSEVQLLESGGGLVQPGGSLRLSCAASGFTFSNYAMSWVRQAPGKGLEWVSAISGSGGSTYYADSVKGRFTISRDNSKNTLYLQMNSLRAEDTAVYYCARPGDGYYEGVYFDYWGQGTLVTVSSTTTPAPRPPTPAPTIASQPLSLRPEACRPAAGGAVHTRGLDFACDIYIWAPLAGTCGVLLLSLVITLYCKRGRKKLLYIFKQPFMRPVQTTQEEDGCSCRFPEEEEGGCELRVKFSRSADAPAYQQGQNQLYNELNLGRREEYDVLDKRRGRDPEMGGKPRRKNPQEGLYNELQKDKMAEAYSEIGMKGERRRGKGHDGLYQGLSTATKDTYDALHMQALPPR
notes: as for B5
B12: anti-BCMA CAR of recombinant lentivirus LV 8 (SEQ ID NO: 270) (other)
chain: DIQMTQSPSSLSASVGDRVTITCQASQDIANYLNWYQQKPGKAPKLLIYDASNLETGVPSRFSGSGSGTDFTFTISSLQPEDIATYYCQQHFNLPLTFGGGTKVEIKGGGGSGGGGSGGGGSGGGGSQITLKESGPTLVKPTQTLTLTCTFSGFSLSTSGVGVGWIRQPPGKALEWLALIYWNDEKRYSPSLKSRLTITKDTSKNQVVLTMTNMDPVDTAVYYCAREGSHDYKSSNWFDPWGQGTLVTVSSTTTPAPRPPTPAPTIASQPLSLRPEACRPAAGGAVHTRGLDFACDIYIWAPLAGTCGVLLLSLVITLYCKRGRKKLLYIFKQPFMRPVQTTQEEDGCSCRFPEEEEGGCELRVKFSRSADAPAYQQGQNQLYNELNLGRREEYDVLDKRRGRDPEMGGKPRRKNPQEGLYNELQKDKMAEAYSEIGMKGERRRGKGHDGLYQGLSTATKDTYDALHMQALPPR
notes: Chimeric antigen receptor on transduced human PBMCs: anti-BCMA scFv, CD8α hinge and TM, CD137 costim, CD3ζ; also called LV 8.1 to LV 8.9
B13: anti-BCMA CAR of recombinant lentivirus LV 15 (SEQ ID NO: 279) (other)
chain: EVQLLESGGGLVQPGGSLRLSCAASGFTFDSYTMSWYRQAPGKERELVSAISGHGDSTYYADSVKGRFTISRDNSKNTLYLQMNSLRAEDTAVYYCTRISITTEWLAGDYWGQGTQVTVSSTTTPAPRPPTPAPTIASQPLSLRPEACRPAAGGAVHTRGLDFACDIYIWAPLAGTCGVLLLSLVITLYCKRGRKKLLYIFKQPFMRPVQTTQEEDGCSCRFPEEEEGGCELRVKFSRSADAPAYQQGQNQLYNELNLGRREEYDVLDKRRGRDPEMGGKPRRKNPQEGLYNELQKDKMAEAYSEIGMKGERRRGKGHDGLYQGLSTATKDTYDALHMQALPPR
notes: as for B1

This experiment has as its target T1, B cell maturation antigen (BCMA). Nature of the experiment: co-culture of transduced PBMCs with RPMI-8226 (high BCMA) or Daudi (low BCMA) cells; recognition read by IFNγ. The procedure:
PBMCs transduced with recombinant lentiviral particles comprising a viral envelope expressing a mutated VSIV-G and a non-viral membrane-bound tropism polypeptide that binds CD3 and a lentiviral vector encoding an MNDU3 promoter operably linked to a polynucleotide encoding a CD8α signal peptide and an anti-BCMA CAR and a WPRE operably linked to the 3′ prime end of the polynucleotide encoding the anti-BCMA CAR (18 anti-BCMA CARs were evaluated) were co-cultured with Daudi cells (low BCMA expression) or RPMI-8226 cells (high BCMA expression) for 24 hours. After 24 hours, IFNγ levels in co-culture supernatant were measured and plotted as a function of % anti-BCMA CAR positive cells in the co-culture.
5×10⁴ PBMCs transduced with recombinant lentiviruses LV 1 to LV 19 were co-cultured with 5×10⁴ high BCMA-expressing tumor cells (RPMI-8226) or 5×10⁴ low BCMA-expressing tumor cells (Daudi) for 24 hours. Anti-BCMA CAR activity was assessed by harvesting co-culture supernatants and measuring IFNγ levels using a Meso Scale Discovery (MSD®) assay. The percentage of anti-BCMA CAR positive cells was plotted against IFNγ levels produced in co-culture. FIG. 2D.
B1: the binding result was “binds”.

Consider B2, for which the binding result is “binds”.

Take B3: the binding result was “binds”.

Consider B4, for which the binding result is reported as “binds”.

Take B5: the binding result is “binds”.

Turning to B6, the binding result is “binds”.

For the molecule B7, the binding result is “binds”.

For B8, the binding result is on record as “binds”.

Turning to B9, the binding result is on record as “binds”.

Turning to B10, the binding result is reported as “binds”.

On to B11, for which the binding result is reported as “binds”.

As to B12, the binding result is “binds”.

Consider B13, for which the binding result is reported as “binds”.
